The values that follow are results of earlier work, collected in patent US11884941B2, “Non-canonical lipoproteins with programmable assembly and architecture and method of making non-canonical lipoproteins” (SYRACUSE UNIVERSITY, priority 2020, dated 2024).

One may read the Km as the concentration of substrate that gives half-maximal velocity.

One data set concerns the target T1, yeast NMT (Saccharomyces cerevisiae, UniProt P14743).
T1 sequence (P14743 1-455): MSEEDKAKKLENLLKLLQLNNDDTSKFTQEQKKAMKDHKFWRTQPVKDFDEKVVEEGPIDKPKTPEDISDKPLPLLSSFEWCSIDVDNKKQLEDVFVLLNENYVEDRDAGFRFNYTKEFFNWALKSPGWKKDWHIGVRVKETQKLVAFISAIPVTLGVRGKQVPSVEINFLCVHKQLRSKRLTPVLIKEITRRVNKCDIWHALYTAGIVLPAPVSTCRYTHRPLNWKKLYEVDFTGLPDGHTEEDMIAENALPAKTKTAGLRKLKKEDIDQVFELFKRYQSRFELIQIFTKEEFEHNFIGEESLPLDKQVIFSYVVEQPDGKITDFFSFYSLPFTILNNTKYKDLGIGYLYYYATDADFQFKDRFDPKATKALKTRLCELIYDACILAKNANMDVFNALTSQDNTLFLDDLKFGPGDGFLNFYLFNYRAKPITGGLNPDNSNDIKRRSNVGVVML

Data set [1] has as its system Pseudomonas acyl-CoA synthetase. The following applies: in vitro.

Like-named read-outs stand apart in the source and are kept apart here.

Consider `[N-]=[N+]=NCCCCCCCCCCCC(=O)O` [ADA, 12-azidododecanoic acid], for which, at yeast NMT (transfer to N-terminal glycine in ternary complex), the “Vm relative to Vm (M)” value is given as 1.5 ×Vm (M).

In the case of `CC(C)(COP(=O)(O)OP(=O)(O)OCC1OC(n2cnc3c(N)ncnc32)C(O)C1OP(=O)(O)O)C(O)C(=O)NCCC(=O)NCCSC(=O)CCCCCCCCCCCN=[N+]=[N-]` (stereo not drawn) [ADA-CoA], the “amount of acyl-CoA produced compared to M-CoA” value in data set [1] is given as 1.5-2 times. On to “GARASVLS [octapeptide NMT substrate derived from Pr55gag polypeptide precursor of human immunodeficiency virus I (Devadas et al.)]”, for which, in the data set with yeast NMT, the “fold reduction of peptide affinity toward NMT:ADA-CoA complex compared to natural substrate (M-CoA)” value is on record as 7 fold. The Km with yeast NMT (NMT with ADA-CoA bound, read-out: Km for the peptide, NMT:ADA-CoA) was 66 µM; in the data set with yeast NMT (NMT with Myr-CoA bound, read-out: Km for the peptide, NMT:Myr-CoA complex), 9 µM. With GLYASKLFSNL (substrate for transferase), the Km with yeast NMT (read-out: Km of recognition sequence for yeast NMT) is around 0.08 µM.
